Experimental findings from article PMC4335406 are described below.

In experiment [1] the target is DsLOV, short LOV protein from Dinoroseobacter shibae DFL12T (Dinoroseobacter shibae DFL12T). The experiment in a line: small angle X-ray scattering (SAXS); 7.2 and 14.8 mg/ml DsLOV in 10 mM NaH2PO4, 300 mM NaCl, pH 8.0, 10°C; beamline BM29, ESRF.
Experiment [2] has the same target. Description: SEC; analytical size-exclusion chromatography; data not shown; conditions not given.

The stoichiometry N is the number of molecules, sites or subunits per partner or assembly. For the substance “DsLOV, short LOV protein from Dinoroseobacter shibae DFL12T (natural protein)”, the stoichiometry N in experiment [1] and in experiment [2] was 2 each time.
